Series [1] addresses chicken CENP-C^677-864 (C-terminus of chicken CENP-C including the Cupin domain) (chicken). Put plainly: crystal structure.
The series “native gel or EMSA” deals with the molecule itself. Put plainly: native gel or EMSA.

The record followed here is article doi:10.1101/2022.08.17.504347 (bioRxiv, 2022).

On to “chicken CENP-C^677-864 (C-terminus of chicken CENP-C including the Cupin domain) (domain or fragment)”, for which, in series [1], the stoichiometry N (in general, a count of units in the complex or per binding partner) was found to be 2.

B1: human CENP-C fragment hCENP-C^760-943 (C-terminus of hCENP-C, wild type) (domain or fragment, UniProt Q03188-1 760-943, looked up)
chain: GRPSGGFVISGVLSPDTISSKRKAKENIGKVNKKSNKKRICLDNDERKTNLMVNLGIPLGDPLQPTRVKDPETREIILMDLVRPQDTYQFFVKHGELKVYKTLDTPFFSTGKLILGPQEEKGKQHVGQDILVFYVNFGDLLCTLHETPYILSTGDSFYVPSGNYYNIKNLRNEESVLLFTQIKR
On to B1, for which the binding result in the series “native gel or EMSA” is “binds”.
